Earlier results on one substance are cited in PMC10530976.

Usually Kd stands for the constant that tells how readily two partners part at equilibrium.

This data set addresses Kv1.2 (UniProt P16389).
UniProt P16389, sequence (P16389 whole entry): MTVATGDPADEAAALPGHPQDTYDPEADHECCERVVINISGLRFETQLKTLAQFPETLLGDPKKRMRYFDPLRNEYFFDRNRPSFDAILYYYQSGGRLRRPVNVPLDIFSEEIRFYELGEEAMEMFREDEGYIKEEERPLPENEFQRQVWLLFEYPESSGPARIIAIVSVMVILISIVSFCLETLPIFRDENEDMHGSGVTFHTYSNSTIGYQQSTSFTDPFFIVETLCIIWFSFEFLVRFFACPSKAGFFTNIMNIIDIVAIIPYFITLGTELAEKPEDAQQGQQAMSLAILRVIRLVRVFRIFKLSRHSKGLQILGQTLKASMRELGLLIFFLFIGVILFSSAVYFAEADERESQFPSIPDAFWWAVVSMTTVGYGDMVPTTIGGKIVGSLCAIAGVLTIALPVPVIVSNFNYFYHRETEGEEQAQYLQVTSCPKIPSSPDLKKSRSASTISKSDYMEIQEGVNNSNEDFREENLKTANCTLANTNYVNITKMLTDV

Take OSK2 (from UniProt P83244): the Kd was 5.97 nM.
